Experimental data: paper PMC12084805
Read-outs that look alike come from different tables or passages of the source.

T1: POT-3 (Caenorhabditis elegans, UniProt G5EFG7 1-215)
T1 sequence: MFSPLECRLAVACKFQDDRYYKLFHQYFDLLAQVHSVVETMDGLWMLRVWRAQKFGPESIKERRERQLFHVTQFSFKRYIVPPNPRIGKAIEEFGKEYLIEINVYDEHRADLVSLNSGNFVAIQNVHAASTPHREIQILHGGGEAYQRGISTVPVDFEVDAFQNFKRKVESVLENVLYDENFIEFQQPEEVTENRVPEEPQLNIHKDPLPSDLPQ

T2: POT-2 (Caenorhabditis elegans, UniProt O45595 1-251)
T2 sequence: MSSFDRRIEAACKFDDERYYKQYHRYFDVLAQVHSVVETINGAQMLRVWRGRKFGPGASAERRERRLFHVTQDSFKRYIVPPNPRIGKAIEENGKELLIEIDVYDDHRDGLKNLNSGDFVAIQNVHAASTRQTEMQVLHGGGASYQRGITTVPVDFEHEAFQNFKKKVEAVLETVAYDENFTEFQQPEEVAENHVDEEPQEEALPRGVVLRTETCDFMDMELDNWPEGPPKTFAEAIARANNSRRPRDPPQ

B1: ss (TTAGAC)2 (ssDNA)
DNA: TTAGACTTAGAC
B2: ss (TTAGGC)2 (ssDNA)
DNA: TTAGGCTTAGGC
B3: ss (TTAGGT)2 (ssDNA)
DNA: TTAGGTTTAGGT

Key:
Experiment in all cases: EMSA
POT-3 [1] = target: T1, POT-3
POT-2 [2] = target: T2, POT-2
POT-3 [3] = target: T1, POT-3; remark: listed apart in the source
POT-2 [4] = target: T2, POT-2; remark: listed apart in the source

| Binder | binding result (POT-3 [1]) | binding result (POT-2 [2]) | binding result (POT-3 [3]) | binding result (POT-2 [4]) |
| --- | --- | --- | --- | --- |
| B1 | no binding | no binding | – | – |
| B2 | – | – | binds | binds |
| B3 | no binding | no binding | – | – |
